Where no end group is shown, it is not given here.
Experiments:
[1] = biological target: T1, Anti-CD28 Fab (SEQ ID NOs: 696, 697); test: phage binding ELISA; biotinylated anti-CD28 Fab on neutravidin plate, clonal phage supernatant, anti-M13 HRP detection
T1 construct: In the phage ELISA the Fab was biotinylated and captured on neutravidin coated plates
T1 sequence (VH, as listed by the source, chain 1 of 2): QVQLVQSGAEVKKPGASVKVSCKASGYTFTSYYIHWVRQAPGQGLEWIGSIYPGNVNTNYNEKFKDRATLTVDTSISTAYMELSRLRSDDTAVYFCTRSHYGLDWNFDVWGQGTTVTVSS
T1 sequence (VL, as listed by the source, chain 2 of 2): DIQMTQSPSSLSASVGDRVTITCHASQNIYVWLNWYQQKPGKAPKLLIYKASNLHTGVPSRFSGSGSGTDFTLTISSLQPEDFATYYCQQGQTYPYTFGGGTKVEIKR

[2] = biological target: T1, Anti-CD28 Fab (SEQ ID NOs: 696, 697); test: phage binding ELISA; Fab-coated wells pre-incubated with CD28 antigen as competitor, anti-M13 HRP detection;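 further: crude clonal phage supernatants from panned colonies added to wells after blocking buffer plus CD28 treatment, bound phage measured after a brief incubation and washing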
Method: (§1) After panning, phage infected bacteria were plated out and colonies picked into 96 well blocks. Clonal phage was then amplified and separated from bacterial cells via centrifugation.
(§2) Clonal phage were harvested as crude supematants and screened via standard ELISAs. […] Prior to the addition of clonal phage, wells were incubated with blocking buffer and CD28 antigen or blocking buffer alone. Without washing or aspirating, clonal phage supematants were then added to the wells and incubated for a short time. Wells were then washed followed by detection of bound phage using a horse radish conjugated anti-M13 antibody. Clonal phage of interest were then sent for sequence analysis.

[3] = biological target: T2, Anti-CD28 Fab (SEQ ID NOs: 696, 697); test: phage binding ELISA; biotinylated Fab on neutravidin plate, clonal phage supernatant, anti-M13 HRP;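 further: clones picked after panning, added to wells pre-incubated with CD28 antigen or with blocking buffer only, no wash before phage addition, bound phage read after washing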
T2 construct: Biotinylated and captured on neutravidin coated plates in the phage ELISA
T2 sequence (VH, as listed by the source, chain 1 of 2): as the sequence (VH, as listed by the source, chain 1 of 2) above
T2 sequence (VL, as listed by the source, chain 2 of 2): as the sequence (VL, as listed by the source, chain 2 of 2) above
Method: as §1, §2

[4] = biological target: T2, Anti-CD28 Fab (SEQ ID NOs: 696, 697); test: phage binding ELISA; Fab wells pre-incubated with CD28 antigen as competitor, anti-M13 HRP
Method: as §1, §2

[5] = biological target: T3, Anti-CD28 Fab (SEQ ID NOs: 696, 697); test: phage ELISA; Fab-coated wells pre-incubated with CD28 antigen as competitor, anti-M13-HRP detection
T3 construct: In the phage ELISA the Fab was biotinylated and captured on neutravidin coated plates
T3 sequence (VH, as listed by the source, chain 1 of 2): as the sequence (VH, as listed by the source, chain 1 of 2) above
T3 sequence (VL, as listed by the source, chain 2 of 2): as the sequence (VL, as listed by the source, chain 2 of 2) above
Method: as §1, §2

[6] = biological target: T3, Anti-CD28 Fab (SEQ ID NOs: 696, 697); test: phage ELISA; biotinylated anti-CD28 Fab on neutravidin plates, bound phage detected with anti-M13-HRP
Method: as §1, §2

| Binder | Anti-CD28 Fab signal (phage binding ELISA) [1] | Anti-CD28 Fab signal in the presence of CD28 [2] | Phage binding ELISA, Anti-CD28 Fab signal in the presence of CD28 [5] | Phage binding ELISA, Anti-CD28 Fab signal [6] | other results |
| --- | --- | --- | --- | --- | --- |
| YCDGHSQAHMQKCL (cysteine pairing not given here; also: displayed fused to phage pIII protein, fusion end and linker not given here, Clonal phage of the peptide-87 library, tested as crude supernatant; not shown: fused to the pIII filament protein of the bacteriophage) [Phage-992] | 1.55 | 0.08 | – | – | – |
| YCDGHSPLYMWKCL (cysteine pairing not given here; also: displayed on phage as fusion to pIII, linker, pIII sequence and order not given here, Clonal phage supernatant; not shown: pIII filament protein of the bacteriophage to which the peptide is fused) [Phage-534] | – | – | – | – | Anti-CD28 Fab (SEQ ID NOs: 696, 697) signal [3]: 2.34; Anti-CD28 Fab signal in the presence of CD28 [4]: 0.08 |
| YCEGHLDMYVWKCL (cysteine pairing not given here; also: displayed fused to phage pIII protein, fusion end and linker not given here, Clonal phage of the peptide-87 library, tested as crude supernatant; not shown: fused to the pIII filament protein of the bacteriophage) [Phage-985] | 1.56 | 0.08 | – | – | – |
| YCEGHSWANLGKCL (cysteine pairing not given here; also: displayed on phage as fusion to pIII, linker, pIII sequence and order not given here, Clonal phage supernatant; not shown: pIII filament protein of the bacteriophage to which the peptide is fused) [Phage-537] | – | – | – | – | Anti-CD28 Fab (SEQ ID NOs: 696, 697) signal [3]: 2.32; Anti-CD28 Fab signal in the presence of CD28 [4]: 0.08 |
| YCDGHLPQYMSKCL (Tested as clonal phage supernatant) [Phage-712] | – | – | 0.1 | 2 | – |
| YCDGHMPQYMSKCL (Tested as clonal phage supernatant) [Phage-716] | – | – | 0.08 | 1.98 | – |
| YCDGHLPEYREKCF (cysteine pairing not given here; also: displayed on phage as fusion to pIII, linker, pIII sequence and order not given here, Clonal phage supernatant; not shown: pIII filament protein of the bacteriophage to which the peptide is fused) [Phage-538] | – | – | – | – | Anti-CD28 Fab (SEQ ID NOs: 696, 697) signal [3]: 2.32; Anti-CD28 Fab signal in the presence of CD28 [4]: 0.07 |
| YCQGHLPQYVEKCL (cysteine pairing not given here; also: displayed fused to phage pIII protein, fusion end and linker not given here, Clonal phage of the peptide-87 library, tested as crude supernatant; not shown: fused to the pIII filament protein of the bacteriophage) [Phage-984] | 1.57 | 0.08 | – | – | – |
| YCDGHLPMYMQKCL (cysteine pairing not given here; also: displayed on phage as fusion to pIII, linker, pIII sequence and order not given here, Clonal phage supernatant; not shown: pIII filament protein of the bacteriophage to which the peptide is fused) [Phage-535] | – | – | – | – | Anti-CD28 Fab (SEQ ID NOs: 696, 697) signal [3]: 2.33; Anti-CD28 Fab signal in the presence of CD28 [4]: 0.11 |
| YCDGHSEVYMSKCL (cysteine pairing not given here; also: displayed fused to phage pIII protein, fusion end and linker not given here, Clonal phage of the peptide-87 library, tested as crude supernatant; not shown: fused to the pIII filament protein of the bacteriophage) [Phage-990] | 1.55 | 0.06 | – | – | – |
| YCEGHAAEYMMKCL (Tested as clonal phage supernatant) [Phage-713] | – | – | 0.07 | 1.99 | – |
| YCDGHLPIYMTQCL (Tested as clonal phage supernatant) [Phage-721] | – | – | 0.08 | 1.97 | – |
| YCEGHLSQYMQKCL (Tested as clonal phage supernatant) [Phage-709] | – | – | 0.09 | 2 | – |
| YCEGHLAEYMDKCL (Tested as clonal phage supernatant) [Phage-722] | – | – | 0.07 | 1.96 | – |
| YCAGHSEEYMDKCL (cysteine pairing not given here; also: displayed fused to phage pIII protein, fusion end and linker not given here, Clonal phage of the peptide-87 library, tested as crude supernatant; not shown: fused to the pIII filament protein of the bacteriophage) [Phage-989] | 1.55 | 0.05 | – | – | – |
| YCDGHLGIYMTKCL (Tested as clonal phage supernatant) [Phage-718] | – | – | 0.08 | 1.98 | – |

| Binder | Anti-CD28 Fab signal (phage binding ELISA) [1] | Anti-CD28 Fab signal in the presence of CD28 [2] | Phage binding ELISA, Anti-CD28 Fab signal in the presence of CD28 [5] | Phage binding ELISA, Anti-CD28 Fab signal [6] | other results |
| --- | --- | --- | --- | --- | --- |
| YCAGHLPMYMHKCL (Tested as clonal phage supernatant) [Phage-714] | – | – | 0.18 | 1.99 | – |
| YCDGHSDQYMWKCL (Tested as clonal phage supernatant) [Phage-711] | – | – | 0.11 | 2 | – |
| YCDGHSPLYMVKCL (cysteine pairing not given here; also: displayed fused to phage pIII protein, fusion end and linker not given here, Clonal phage of the peptide-87 library, tested as crude supernatant; not shown: fused to the pIII filament protein of the bacteriophage) [Phage-987] | 1.56 | 0.06 | – | – | – |
| YCDGHFLTYMTKCL (cysteine pairing not given here; also: displayed fused to phage pIII protein, fusion end and linker not given here, Clonal phage of the peptide-87 library, tested as crude supernatant; not shown: fused to the pIII filament protein of the bacteriophage) [Phage-988] | 1.56 | 0.07 | – | – | – |
| YCEGHLPEYMLKCL (cysteine pairing not given here; also: displayed on phage as fusion to pIII, linker, pIII sequence and order not given here, Clonal phage supernatant; not shown: pIII filament protein of the bacteriophage to which the peptide is fused) [Phage-539] | – | – | – | – | Anti-CD28 Fab (SEQ ID NOs: 696, 697) signal [3]: 2.32; Anti-CD28 Fab signal in the presence of CD28 [4]: 0.09 |
| YCEGHLPMYFLKCM (Tested as clonal phage supernatant) [Phage-720] | – | – | 0.06 | 1.97 | – |
| YCQGHLPMYMEKCL (cysteine pairing not given here; also: displayed on phage as fusion to pIII, linker, pIII sequence and order not given here, Clonal phage supernatant; not shown: pIII filament protein of the bacteriophage to which the peptide is fused) [Phage-532] | – | – | – | – | Anti-CD28 Fab (SEQ ID NOs: 696, 697) signal [3]: 2.34; Anti-CD28 Fab signal in the presence of CD28 [4]: 0.09 |
| YCDGHSQEYIAKCL (Tested as clonal phage supernatant) [Phage-715] | – | – | 0.07 | 1.99 | – |
| YCEGHTLEYMWKCL (cysteine pairing not given here; also: displayed fused to phage pIII protein, fusion end and linker not given here, Clonal phage of the peptide-87 library, tested as crude supernatant; not shown: fused to the pIII filament protein of the bacteriophage) [Phage-991] | 1.55 | 0.33 | – | – | – |
| YCVGHLPQYMEKCL (Tested as clonal phage supernatant) [Phage-717] | – | – | 0.08 | 1.98 | – |
| YCDGHLPMYMKKCL (cysteine pairing not given here; also: displayed fused to phage pIII protein, fusion end and linker not given here, Clonal phage of the peptide-87 library, tested as crude supernatant; not shown: fused to the pIII filament protein of the bacteriophage) [Phage-983] | 1.57 | 0.1 | – | – | – |
| YCDGHSQEYMAHCL (cysteine pairing not given here; also: displayed fused to phage pIII protein, fusion end and linker not given here, Clonal phage of the peptide-87 library, tested as crude supernatant; not shown: fused to the pIII filament protein of the bacteriophage) [Phage-986] | 1.56 | 0.07 | – | – | – |
| YCDGHSPMYILKCL (cysteine pairing not given here; also: displayed on phage as fusion to pIII, linker, pIII sequence and order not given here, Clonal phage supernatant; not shown: pIII filament protein of the bacteriophage to which the peptide is fused) [Phage-531] | – | – | – | – | Anti-CD28 Fab (SEQ ID NOs: 696, 697) signal [3]: 2.34; Anti-CD28 Fab signal in the presence of CD28 [4]: 0.08 |
| YCDGHLWEYMDKCL (Tested as clonal phage supernatant) [Phage-719] | – | – | 0.06 | 1.97 | – |
| YCDGHSPIYMSKCL (Tested as clonal phage supernatant) [Phage-710] | – | – | 0.09 | 2 | – |

From US20260242478A1 (published 2026)
